B1: PiggyBac transposable element-derived protein 1 (Homo sapiens), Q96JS3 (parent)
chain: MYEALPGPAPENEDGLVKVKEEDPTWEQVCNSQEGSSHTQEICRLRFRHFCYQEAHGPQEALAQLRELCHQWLRPEMHTKEQIMELLVLEQFLTILPKELQPCVKTYPLESGEEAVTVLENLETGSGDTGQQASVYIQGQDMHPMVAEYQGVSLECQSLQLLPGITTLKCEPPQRPQGNPQEVSGPVPHGSAHLQEKNPRDKAVVPVFNPVRSQTLVKTEEETAQAVAAEKWSHLSLTRRNLCGNSAQETVMSLSPMTEEIVTKDRLFKAKQETSEEMEQSGEASGKPNRECAPQIPCSTPIATERTVAHLNTLKDRHPGDLWARMHISSLEYAAGDITRKGRKKDKARVSELLQGLSFSGDSDVEKDNEPEIQPAQKKLKVSCFPEKSWTKRDIKPNFPSWSALDSGLLNLKSEKLNPVELFELFFDDETFNLIVNETNNYASQKNVSLEVTVQEMRCVFGVLLLSGFMRHPRREMYWEVSDTDQNLVRDAIRRDRFELIFSNLHFADNGHLDQKDKFTKLRPLIKQMNKNFLLYAPLEEYYCFDKSMCECFDSDQFLNGKPIRIGYKIWCGTTTQGYLVWFEPYQEESTMKVDEDPDLGLGGNLVMNFADVLLERGQYPYHLCFDSFFTSVKLLSALKKKGVRATGTIRENRTEKCPLMNVEHMKKMKRGYFDFRIEENNEIILCRWYGDGIISLCSNAVGIEPVNEVSCCDADNEEIPQISQPSIVKVYDECKEGVAKMDQIISKYRVRIRSKKWYSILVSYMIDVAMNNAWQLHRACNPGASLDPLDFRRFVAHFYLEHNAHLSD
partner: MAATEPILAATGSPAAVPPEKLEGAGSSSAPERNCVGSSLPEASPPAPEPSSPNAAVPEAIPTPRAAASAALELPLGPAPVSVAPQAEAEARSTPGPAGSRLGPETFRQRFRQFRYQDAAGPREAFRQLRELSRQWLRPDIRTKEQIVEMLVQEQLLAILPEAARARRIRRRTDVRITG
B2: Protein DBF4 homolog B (Homo sapiens), Q8NFT6 (parent)
chain: MSEPGKGDDCLELESSMAESRLRAPDLGVSRCLGKCQKNSPGARKHPFSGKSFYLDLPAGKNLQFLTGAIQQLGGVIEGFLSKEVSYIVSSRREVKAESSGKSHRGCPSPSPSEVRVETSAMVDPKGSHPRPSRKPVDSVPLSRGKELLQKAIRNQGSISGGGSGGSSSLLTNARSWGVRILHVDEMMMHVQQLSLASLCVKKQQPKKPEGTCPAAESRTRKVARLKAPFLKIEDESRKFRPFHHQFKSFPEISFLGPKDASPFEAPTTLGSMHHTRESKDGEPSPRSAAHTMPRRKKGYCECCQEAFEELHVHLQSAQHRSFALEAHLYAEVDRIIAQLSHSFADIPFQAGLPRWSGSPASDCDPLCPETLHPHQPSHPRAASPRIRKEDSCQASVTQGRAAGQQRWTESLDGVMGPPASHTCVSATTLLPALPKGSREQGCLCPCPASFTQSHLVTSLALLPGEWSPAEDMPLHPSQENSFAPADIPVKGPLLFPEARPWLMSARCWVRPFPFVTWGCLIPHDTTPLHEEVSPCPCLRLGYLYLLLTQSLWCRVRVPSLSTAGPIPRTSHPCTLAFPSYLNDHDLGHLCQAKPQGWNTPQPFLHCGFLAVDSG
partner: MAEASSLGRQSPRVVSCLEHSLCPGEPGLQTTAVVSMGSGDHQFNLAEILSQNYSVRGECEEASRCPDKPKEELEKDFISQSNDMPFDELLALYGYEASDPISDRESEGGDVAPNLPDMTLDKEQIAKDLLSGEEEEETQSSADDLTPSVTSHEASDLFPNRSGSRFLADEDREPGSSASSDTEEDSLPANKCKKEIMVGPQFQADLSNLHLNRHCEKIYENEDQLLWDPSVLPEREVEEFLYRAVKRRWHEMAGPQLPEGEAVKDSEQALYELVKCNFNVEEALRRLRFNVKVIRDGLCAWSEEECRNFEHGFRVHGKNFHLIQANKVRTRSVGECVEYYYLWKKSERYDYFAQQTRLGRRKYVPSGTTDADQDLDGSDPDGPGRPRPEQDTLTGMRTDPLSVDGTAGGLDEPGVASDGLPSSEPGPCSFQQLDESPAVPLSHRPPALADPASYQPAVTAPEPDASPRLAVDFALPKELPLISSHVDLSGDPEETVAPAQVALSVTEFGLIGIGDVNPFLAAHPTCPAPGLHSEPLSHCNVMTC
B3: Serine/threonine-protein kinase PAK 5 (Homo sapiens), Q9P286 (parent)
chain: MFGKKKKKIEISGPSNFEHRVHTGFDPQEQKFTGLPQQWHSLLADTANRPKPMVDPSCITPIQLAPMKTIVRGNKPCKETSINGLLEDFDNISVTRSNSLRKESPPTPDQGASSHGPGHAEENGFITFSQYSSESDTTADYTTEKYREKSLYGDDLDPYYRGSHAAKQNGHVMKMKHGEAYYSEVKPLKSDFARFSADYHSHLDSLSKPSEYSDLKWEYQRASSSSPLDYSFQFTPSRTAGTSGCSKESLAYSESEWGPSLDDYDRRPKSSYLNQTSPQPTMRQRSRSGSGLQEPMMPFGASAFKTHPQGHSYNSYTYPRLSEPTMCIPKVDYDRAQMVLSPPLSGSDTYPRGPAKLPQSQSKSGYSSSSHQYPSGYHKATLYHHPSLQSSSQYISTASYLSSLSLSSSTYPPPSWGSSSDQQPSRVSHEQFRAALQLVVSPGDPREYLANFIKIGEGSTGIVCIATEKHTGKQVAVKKMDLRKQQRRELLFNEVVIMRDYHHDNVVDMYSSYLVGDELWVVMEFLEGGALTDIVTHTRMNEEQIATVCLSVLRALSYLHNQGVIHRDIKSDSILLTSDGRIKLSDFGFCAQVSKEVPKRKSLVGTPYWMAPEVISRLPYGTEVDIWSLGIMVIEMIDGEPPYFNEPPLQAMRRIRDSLPPRVKDLHKVSSVLRGFLDLMLVREPSQRATAQELLGHPFLKLAGPPSCIVPLMRQYRHH
partner: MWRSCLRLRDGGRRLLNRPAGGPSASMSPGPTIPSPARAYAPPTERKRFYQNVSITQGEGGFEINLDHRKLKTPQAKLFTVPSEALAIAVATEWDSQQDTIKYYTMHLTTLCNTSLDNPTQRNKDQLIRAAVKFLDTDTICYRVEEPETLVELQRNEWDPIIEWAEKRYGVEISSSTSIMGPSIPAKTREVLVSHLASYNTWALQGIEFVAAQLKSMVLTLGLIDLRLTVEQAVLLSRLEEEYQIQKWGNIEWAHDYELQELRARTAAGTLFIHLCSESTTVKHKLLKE
B4: Carboxy-terminal domain RNA polymerase II polypeptide A small phosphatase 1 (Homo sapiens), Q9GZU7 (parent)
chain: MDSSAVITQISKEEARGPLRGKGDQKSAASQKPRSRGILHSLFCCVCRDDGEALPAHSGAPLLVEENGAIPKQTPVQYLLPEAKAQDSDKICVVIDLDETLVHSSFKPVNNADFIIPVEIDGVVHQVYVLKRPHVDEFLQRMGELFECVLFTASLAKYADPVADLLDKWGAFRARLFRESCVFHRGNYVKDLSRLGRDLRRVLILDNSPASYVFHPDNAVPVASWFDNMSDTELHDLLPFFEQLSRVDDVYSVLRQPRPGS
partner: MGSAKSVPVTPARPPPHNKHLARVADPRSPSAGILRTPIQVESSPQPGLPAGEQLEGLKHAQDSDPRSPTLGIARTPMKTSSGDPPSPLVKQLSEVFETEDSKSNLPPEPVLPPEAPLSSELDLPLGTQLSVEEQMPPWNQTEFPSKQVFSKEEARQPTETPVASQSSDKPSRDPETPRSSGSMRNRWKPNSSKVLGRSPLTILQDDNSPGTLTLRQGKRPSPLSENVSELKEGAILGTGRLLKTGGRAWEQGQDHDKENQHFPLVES
B5: Vacuolar protein-sorting-associated protein 25 (Homo sapiens), Q9BRG1 (parent)
chain: MAMSFEWPWQYRFPPFFTLQPNVDTRQKQLAAWCSLVLSFCRLHKQSSMTVMEAQESPLFNNVKLQRKLPVESIQIVLEELRKKGNLEWLDKSKSSFLIMWRRPEEWGKLIYQWVSRSGQNNSVFTLYELTNGEDTEDEEFHGLDEATLLRALQALQQEHKAEIITVSDGRGVKFF
partner: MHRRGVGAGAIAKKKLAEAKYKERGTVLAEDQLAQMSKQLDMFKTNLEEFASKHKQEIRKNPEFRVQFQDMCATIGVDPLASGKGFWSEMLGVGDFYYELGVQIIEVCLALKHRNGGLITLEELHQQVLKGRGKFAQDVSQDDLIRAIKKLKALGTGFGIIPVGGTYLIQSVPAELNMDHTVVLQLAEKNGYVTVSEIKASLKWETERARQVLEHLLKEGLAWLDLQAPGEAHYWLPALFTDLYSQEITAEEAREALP
B6: Serine/threonine-protein phosphatase 2A activator (Homo sapiens), Q15257 (parent)
chain: MAEGERQPPPDSSEEAPPATQNFIIPKKEIHTVPDMGKWKRSQAYADYIGFILTLNEGVKGKKLTFEYRVSEMWNEVHEEKEQAAKQSVSCDECIPLPRAGHCAPSEAIEKLVALLNTLDRWIDETPPVDQPSRFGNKAYRTWYAKLDEEAENLVATVVPTHLAAAVPEVAVYLKESVGNSTRIDYGTGHEAAFAAFLCCLCKIGVLRVDDQIAIVFKVFNRYLEVMRKLQKTYRMEPAGSQGVWGLDDFQFLPFIWGSSQLIDHPYLEPRHFVDEKAVNENHKDYMFLECILFITEMKTGPFAEHSNQLWNISAVPSWSKVNQGLIRMYKAECLEKFPVIQHFKFGSLLPIHPVTSG
B7: Mothers against decapentaplegic homolog 3 (Homo sapiens), P84022 (parent)
chain: MSSILPFTPPIVKRLLGWKKGEQNGQEEKWCEKAVKSLVKKLKKTGQLDELEKAITTQNVNTKCITIPRSLDGRLQVSHRKGLPHVIYCRLWRWPDLHSHHELRAMELCEFAFNMKKDEVCVNPYHYQRVETPVLPPVLVPRHTEIPAEFPPLDDYSHSIPENTNFPAGIEPQSNIPETPPPGYLSEDGETSDHQMNHSMDAGSPNLSPNPMSPAHNNLDLQPVTYCEPAFWCSISYYELNQRVGETFHASQPSMTVDGFTDPSNSERFCLGLLSNVNRNAAVELTRRHIGRGVRLYYIGGEVFAECLSDSAIFVQSPNCNQRYGWHPATVCKIPPGCNLKIFNNQEFAALLAQSVNQGFEAVYQLTRMCTIRMSFVKGWGAEYRRQTVTSTPCWIELHLNGPLQWLDKVLTQMGSPSIRCSSVS
partner: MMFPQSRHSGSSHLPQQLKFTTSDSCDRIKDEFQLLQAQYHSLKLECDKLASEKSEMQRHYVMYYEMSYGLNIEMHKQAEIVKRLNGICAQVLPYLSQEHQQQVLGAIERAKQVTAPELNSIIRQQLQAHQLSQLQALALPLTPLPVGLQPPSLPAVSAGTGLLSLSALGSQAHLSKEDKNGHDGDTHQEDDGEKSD

The first assay covers variants of B1. To be noted: with scnd1_human SCAND1, P57086.
For the variant I678V, the “effect of a mutation on the interaction” value is recorded as “with no effect”.
Still for that read-out and setting: to Q248E belongs “with no effect”; to G244E, “with no effect”; to P256L, “with no effect”.

In a further assay the parent is B2. The following applies: with mier2_human MIER2, Q8N344.
Turning to L199S, the “effect of a mutation on the interaction” value is “with no effect”.

The variants in the next assay derive from B3. To be noted: with atpf2_human ATPAF2, Q8N5M1.
In the case of R335P, the “effect of a mutation on the interaction” value is “with no effect”.

Variants of B4 are the subject of a further assay. The following applies: with cdca3_human CDCA3, Q99618.
H57D: the “effect of a mutation on the interaction” value is given as “with no effect”.
Still for that read-out and setting: to A56T belongs “with no effect”.

The variants in another assay derive from B5. The following applies: with snf8_human SNF8, Q96H20.
Turning to I76V, the “effect of a mutation on the interaction” value is “with no effect”.

The variants in a further assay derive from B6. The following applies: with amot_human AMOT.
Take K218T: the “effect of a mutation on the interaction” value is “with no effect”.

The variants in the next assay derive from B7. To be noted: with tle5_human TLE5, Q08117.
Turning to I170V, the “effect of a mutation on the interaction” value is given as “with no effect”.

Variants of B7 are the subject of another assay. To be noted: with tle5_human TLE5, Q08117. This is another data set of the same source.
For the variant P393L, the “effect of a mutation on the interaction” value is on record as “disrupting interaction strength”.

For the origin of these results see IntAct's records for PubMed 31515488.
